The target in this assay is rabbit muscle actin (filaments: ADP-F-actin or ADP•BeFx-F-actin) (rabbit, UniProt P68135 1-377). Briefly: co-sedimentation.

B1: cofilin-2 (mouse, recombinant wild type) (natural protein)
chain: MASGVTVNDEVIKVFNDMKVRKSSTQEEIKKRKKAVLFCLSDDKRQIIVEEAKQILVGDIGDTVEDPYTSFVKLLPLNDCRYALYDATYETKESKKEDLVFIFWAPESAPLKSKMIYASSKDAIKKKFTGIKHEWQVNGLDDIKDRSTLGEKLGGSVVVSLEGKPL
In the case of B1, the “KD of a small fraction (~20%) of the cofilin” value was about 1000 nM and the “KD of the majority of the cofilin” value was about 5000 nM.

These data come from paper PMC4223631 (Developmental cell, 2014).
